Test results reported in the supplement of paper PMC7877785.
± gives the uncertainty stated by the source.

Test: self-splicing fitness, log relative to wild type (ln ratio); higher = more splicing; Tetrahymena group I intron in knt gene, E. coli kanamycin selection, DiMSum; sequences stand for … in CUCUCU…GGAGGGAAAAGUUAUCAGGCAUGCACCUGGUAGCUAGUCUUUAAACCAAUAGAUUGCAUCGGUUUAAAAGGCAAGACCGUCAAAUUGCGGGAAAGGGGUCAACAGCCGUUCAGUACCAAGUCUCAGGGGAAACUUUGAGAUGGCCUUGCAAAGGGUAUGGUAAUAAGCUGACGGACAUGGUCCUAACCACGCAGCCAAGUCCUAAGUCAACAGAUCUUCUGUUGAUAUGGAUGCAGUUCACAGACUAAAUGUCGGUCGGGGAAGAUGUAUUCUUCUCAUAAGAUAUAGUCGGACCUCUCCUUAAUGGGAGCUAGCGGAUGAAGUGAUGCAACACUGGAGCCGCUGGGAACUAAUUUGUAUGCGAAAGUAUAUUGAUUAGUUUUGGAGUACUCGUGGUCG
In short: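 DiMSum derived fitness as the error-weighted combination of fold changes across replicates, kanamycin versus no kanamycin, normalised to wild type. E. coli BL21(DE3) held the library, which randomised all eight P1ex-region intron nucleotides within the knt kanamycin-resistance gene on pET-22b(+). Six replicate transformations grew overnight at 37°C or 30°C on LB agar with or without 25 μg/mL kanamycin, also containing 100 μg/mL carbenicillin, 50 μM IPTG and 0.2% rhamnose, and pooled colonies were amplicon-sequenced on an Illumina HiSeq 2500.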

Sequence	self-splicing fitness (ln) (30 °C)	self-splicing fitness (ln) (37 °C)
UUUCAGCAAUAUUACGCCGG	-0.905 ± 0.17	-1.68 ± 0.25
UUUCAGCAAUAUUACGCCUA	-0.129 ± 0.066	0.414 ± 0.078
UUUCAGCAAUAUUACGGCGC	-1.11 ± 0.11	-1.58 ± 0.16
UUUCAGCAAUAUUACGGUCC	-2.8 ± 0.37	-0.245 ± 0.35
UUUCAGCAAUAUUACGUACA	-0.836 ± 0.11	-0.465 ± 0.11
UUUCAGCAAUAUUACGUAUG	-0.689 ± 0.081	-0.635 ± 0.11
UUUCAGCAAUAUUACGUUUC		-2.28 ± 0.29
UUUGAGCAAUAUUACGAAAA	-2.31 ± 0.28	-1.21 ± 0.24
UUUGAGCAAUAUUACGACGA	-0.573 ± 0.15	0.211 ± 0.18
UUUGAGCAAUAUUACGACUA	-1.98 ± 0.27	-1.32 ± 0.28
UUUGAGCAAUAUUACGAGAA		-2.17 ± 0.46
UUUGAGCAAUAUUACGAGCA		-1.53 ± 0.43
UUUGAGCAAUAUUACGAUAU		-0.926 ± 0.24
UUUGAGCAAUAUUACGCAGC	-3.5 ± 0.28	-2.43 ± 0.21
UUUGAGCAAUAUUACGCCUA	-0.79 ± 0.45	
UUUGAGCAAUAUUACGCGCA		-1.65 ± 0.48
UUUGAGCAAUAUUACGCUAC		-1.45 ± 0.3
UUUGAGCAAUAUUACGCUAG	-2.68 ± 0.37	-1.33 ± 0.23
UUUGAGCAAUAUUACGCUGA	-2.58 ± 0.34	
UUUGAGCAAUAUUACGGCGG	-1.04 ± 0.24	-1.57 ± 0.28
UUUGAGCAAUAUUACGGGGC		-2.07 ± 0.45
UUUGAGCAAUAUUACGGGUU	-3.23 ± 0.34	-2.91 ± 0.48
UUUGAGCAAUAUUACGGUAU	-4.23 ± 0.36	-2.73 ± 0.38
UUUGAGCAAUAUUACGUAUC	-4 ± 0.29	-2.45 ± 0.23
UUUGAGCAAUAUUACGUCAU	-3.88 ± 0.34	-1.64 ± 0.21

Sequence	self-splicing fitness (ln) (30 °C)	self-splicing fitness (ln) (37 °C)
UUUGAGCAAUAUUACGUCUA	-1.05 ± 0.2	-1.06 ± 0.21
UUUGAGCAAUAUUACGUGCU	-3.64 ± 0.16	-2.84 ± 0.2
UUUGAGCAAUAUUACGUUAA	-2.96 ± 0.29	-1.57 ± 0.22
UUUUAGCAAUAUUACGAAGG		-1.85 ± 0.41
UUUUAGCAAUAUUACGAAUC		-1.38 ± 0.4
UUUUAGCAAUAUUACGACAU	-2.164 ± 0.021	-1.09 ± 0.036
UUUUAGCAAUAUUACGAUCA	-0.641 ± 0.15	-0.391 ± 0.17
UUUUAGCAAUAUUACGCCAA	-2.27 ± 0.35	0.0505 ± 0.22
UUUUAGCAAUAUUACGCCCA	-0.313 ± 0.22	0.00602 ± 0.28
UUUUAGCAAUAUUACGCCGG	-1.28 ± 0.18	-0.833 ± 0.21
UUUUAGCAAUAUUACGCCUG	-0.393 ± 0.22	0.333 ± 0.3
UUUUAGCAAUAUUACGCCUU	-1.74 ± 0.34	-0.968 ± 0.22
UUUUAGCAAUAUUACGCGAC	-2.52 ± 0.34	
UUUUAGCAAUAUUACGCUAG	-3.18 ± 0.34	-1.7 ± 0.35
UUUUAGCAAUAUUACGCUCA	-0.731 ± 0.29	0.849 ± 0.44
UUUUAGCAAUAUUACGCUCC	-1.4 ± 0.33	-1.25 ± 0.45
UUUUAGCAAUAUUACGCUUU	-3.71 ± 0.28	-1.23 ± 0.16
UUUUAGCAAUAUUACGGAUG	-1.12 ± 0.22	0.2 ± 0.15
UUUUAGCAAUAUUACGGCUC	-2.49 ± 0.23	-0.329 ± 0.21
UUUUAGCAAUAUUACGUCGU	-3.49 ± 0.15	-2.81 ± 0.17
UUUUAGCAAUAUUACGUGUC	-2.93 ± 0.3	-2.26 ± 0.38
UUUUAGCAAUAUUACGUGUG	-2.29 ± 0.16	-1.17 ± 0.15
UUUUAGCAAUAUUACGUUAU	-2.53 ± 0.25	-1.73 ± 0.35
UUUUAGCAAUAUUACGUUCA	-1.18 ± 0.21	-0.458 ± 0.22
UUUUAGCAAUAUUACGUUGU	-2.65 ± 0.18	-2.13 ± 0.24
